Source: US20220362394A1, “ANTI-BCMA ANTIBODY CONJUGATES” (SUTRO BIOPHARMA, INC., priority 2019, published 2022)

B1: 10F4: chicken antibody, VH SEQ ID NO 203, VL SEQ ID NO 225 (antibody, V domains shown)
VH: AVTLDESGGGLQTPGGALSLVCKASGFTFSGYNMGWVRQAPGKGLEYVAGITYGTGSYTAYGAAVKGRATISRDNGQSTLRLQLNNLRAEDTATYYCARGGGLNSYGCSGANIDAWGHGTEVIVSS
VL: ALTQPSSVSANLGGTVKITCSGGGNYFGSYYYGWYQQKAPGSAPVTVIYNNNNRPSDIPSRFSGSTSGSTSTLTISGVRAEDEAVYFCGGFDSSTDAIFGAGTTLTVL
modifications: Synthetic 10F4, VH; Synthetic 10F4, VL
B2: 10H1: chicken antibody, VH SEQ ID NO 211, VL SEQ ID NO 233 (antibody, V domains shown)
VH: AVTLDESGGGLQTPGGALSLVCKASGFTFSGYGMGWMRQAPGKGLEYVARINSAGSDTDYGAAVKGRATISRDNGQSTVRLQLNNLRAEDTATYFCTRGGGGASIDGWGHGTEVIVSS
VL: ALTQPSSVSANPGETVKITCSGGGNYYGSYYYGWYQQKAPGSAPVTVIYNNNNRPSNIPSRFSGSKSGSTGTLTITGVQAEDEAVYFCGGFDSSSDAIFGAGTTLTVL
modifications: Synthetic 10H1, VH; Synthetic 10H1, VL
B3: 9E12: chicken antibody, VH SEQ ID NO 209, VL SEQ ID NO 231 (antibody, V domains shown)
VH: AVTLDESGGGLQTPGGGLSLVCKASGFTFSDYGLGWMRQAPGKGLEYVARINSAGSGTYYGSAVDGRATISRDNGQSTVRLQLNNLRAEDTGTYYCTRGGGGASIDGWGHGTEVIVSS
VL: ALTQPSSVSANPGETVKITCSGGGSYYGSYYYGWYQQKSPGSAPVTLIYNNNNRPSDIPSRFSGSTSGSTGTLTITGVRAEDEAVYYCGSFDSSTDAIFGAGTTLTVL
modifications: Synthetic 9E12, VH; Synthetic 9E12, VL
B4: 10E10: chicken antibody, VH SEQ ID NO 212, VL SEQ ID NO 234 (antibody, V domains shown)
VH: AVTLDESGGGLQTPGGGLSLVCKASGFTFSSYGMGWMRQAPGKGLEFVARINSGGSSYTDYGSAVKGRATISRDDGQSTVRLQLNNLRAEDTGIYYCTRGGGGASIDGWGHGTEVIVSS
VL: ALTQPSSVSANPGETVKITCSGGGNYAGSYYYGWYQQKSPGSAPLTVIYNSNNRPSDIPSRFSGSLSGSTGTLTITGVRAEDEAVYFCGGFDSSTDAIFGAGTTLTVL
modifications: Synthetic 10E10, VH; Synthetic 10E10, VL
B5: 9H1: chicken antibody, VH SEQ ID NO 210, VL SEQ ID NO 232 (antibody, V domains shown)
VH: AVTLDESGGGLQTPGGALSLVCKGSGFTFSDYGMGWMRQAPGKGLQYVARINSAGSDTNYGSAVKGRATISRDDGQSTVRLQLSSLRAEDTGIYYCTRGGGGASIDGWGHGTEVIVSS
VL: ALTQPSSVSANPGETVKITCSGGGSYYGSYYYGWYQQKSPGSAPVTLIYNNNNRPSDIPSRFSGSTSGSTGTLTITGVRAEDEAVYYCGSFDSSTDAIFGAGTTLTVL
modifications: Synthetic 9H1, VH; Synthetic 9H1, VL
B6: 9A5: chicken antibody, VH SEQ ID NO 208, VL SEQ ID NO 230 (antibody, V domains shown)
VH: AVTLDESGGGLQTPGGAVSLVCKASGFSISDYGMGWMRQAPGKGLQYVARIDHDGRYTDYGAVVKGRATISRDNGQSTVRLQLNNLRAEDTGTYYCTRGGGAASIDTWGHGTEVIVSS
VL: ALTQPSSVSANPGETVKITCSGGGNYVGGYYYGWYQQKAPGSALVTLIYNNNNRPSNIPSRFSGSTSGSTSTLTITGVRAEDEAVYFCGSFDSSTDAIFGAGTTLTVL
modifications: Synthetic 9A5, VH; Synthetic 9A5, VL
B7: 11D6: chicken antibody, VH SEQ ID NO 198, VL SEQ ID NO 220 (antibody, V domains shown)
VH: AVTLDESGGGLQTPGGTLSLVCKASGFTFSSFNMFWVRQAPGEGLEWVAYIRNDGRSTSYGPAVKGRATISRDNGQSTVRLQLNNLRAEDTGTYFCAKTTCVGSGGCIDTWGHGTEVIVSS
VL: ALTQPSSVSANPGETVEITCSGGNSDYGWFQQKSPGSAPVTVIYRNNQRPSDIPSRFSGSGSGSTNTLTITGVQAEDEAIYYCGNVDFTDDVFGAGTTLTVL
modifications: Synthetic 11D6, VH; Synthetic 11D6, VL
B8: 10G5: chicken antibody, VH SEQ ID NO 197, VL SEQ ID NO 219 (antibody, V domains shown)
VH: AVTLDESGGGLQTPGGVLSLVCKASGFTFSSFNMFWVRQAPGKGLEWVAYISNDGSSTSYGPAVKGRATISRDNGQSTVRLQLNNLRAEDTATYFCAKTTCIGSGGCIDTWGHGTEVIVSS
VL: ALTQPSSVSANPGETVKITCSGGNYDYGWYQQKSPGSAPVTLIYYNNKRPSDIPSRFSGSKSGSTGTLTITGVQAEDEAIYYCANVDSTDDVFGAGTTLTVL
modifications: Synthetic 10G5, VH; Synthetic 10G5, VL
B9: 9A8: chicken antibody, VH SEQ ID NO 196, VL SEQ ID NO 218 (antibody, V domains shown)
VH: AVTLDESGGGLQTPGGTLSLVCKASGFTFSSFNMFWVRQAPGKGLEWVAYIRNDGNSASYGPAVKGRATISRDNGQSTVRLQLNNLRAEDTATYYCAKTTCIGSGGCIDTWGHGTEVIVSS
VL: ALTQPSSVSANPGETVKITCSGGSSDYGWFQQKSPGSAPVTVIYSNNQRPSGIPSRFSGSKSGSTGTLTITGVQAEDEAIYYCANVDYTDDVFGAGTTLTVL
modifications: Synthetic 9A8, VH; Synthetic 9A8, VL

Key:
U266B1 = experiment: Cell killing with drug-conjugated 2° antibody (internalization), U266B1; assay type: cell-based, human; details: Conjugate P 2° antibody 20 nM, 72 hrs
Description: (§1) The internalization of the antibodies was evaluated by drugs conjugated to secondary antibodies in a cell killing assay on BCMA positive cells. BCMA-positive cell lines ARP-1 and U266B1 were used to screen for internalizing leads. Cells were washed twice with calcium and magnesium-free Dulbecco's phosphate-buffered saline (DPBS), harvested with Accutase® (Innovative Cell Technologies; San Diego, Calif.) and counted by the Vi-CELL Cell Viability Analyzers (Beckman Coulter, Brea, Calif.). A total of 12,500 cells in a volume of 25 microliter were seeded in a 384-well flat bottom white polystyrene plate (Greiner Bio-One, Monroe, N.C.) on the day of assay. Lead antibodies were formulated at 4× starting concentration in the cell culture medium and filtered through MultiScreenHTS 96-Well Filter Plates (Millipore; Billerica, Mass.). 12.5 μL of the serial diluted antibody (1:3 serial dilution starting from 100 nM) was added into treatment wells and 12.5 μL of an anti-human nanobody conjugated to according to Conjugate P (hemiasterlin via a cleavable linker) or according to Conjugate M (maytansinoid via a non-cleavable linker) was then added into each well at a fixed final concentration of 20 nM. […] Data was fitted with non-linear regression analysis, using a log(inhibitor) vs. response-variable slope, 4 parameter fit with GraphPad Prism (GraphPad v 5.0, Software; San Diego, Calif.). Data was expressed as relative cell viability (ATP content) % vs. dose of antibody.

ARP-1 = experiment: Cell killing with drug-conjugated 2° antibody (internalization), ARP-1; assay type: cell-based, human; details: 72 hrs; for Span (%): Conjugate P 2° antibody 20 nM; for EC50: Conjugate P 2° antibody (hemiasterlin, cleavable linker) 20 nM
Description: as §1

human BCMA-Fc = target: T1, human BCMA-Fc (Homo sapiens, UniProt Q02223); experiment: Biacore kinetics, human BCMA-Fc; assay type: binding; details: 25° C., 1-1 Langmuir model
T1 construct: purchased R&D Systems
T1 sequence (Q02223 1-54 limits assumed): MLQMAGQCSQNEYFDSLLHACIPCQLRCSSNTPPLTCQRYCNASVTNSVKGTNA
Description: Anti-Fab or anti-Fc polyclonal antibodies were immobilized onto a CM5 chip (GE Life Sciences) using amine coupling chemistry (from Amine Coupling Kit, GE Life Sciences). The immobilization steps were carried out at a flow rate of 25 μL/min in 1×HBS-EP+ buffer (GE Life Sciences; 10× Stock diluted before use). The sensor surfaces were activated for 7 min with a mixture of NHS (0.05 M) and EDC (0.2 M). The anti-Fab or anti-Fc antibodies were injected over all 4 flow cells at a concentration of 25 μg/ml in 10 mM sodium acetate, pH 4.5, for 7 min. Ethanolamine (1 M, pH 8.5) was injected for 7 min to block any remaining activated groups. An average of 12,000 response units (RU) of capture antibody was immobilized on each flow cell.
Off-rate and kinetic binding experiments were performed at 25° C. using 1×HBS-EP+ buffer. Test and control antibodies were injected over the anti-Fab or anti-Fc surface at concentrations of 5-10 μg/mL for 12 seconds at a flow rate of 10 μL/min on flow cells 2, 3 and 4, followed by a buffer wash for 30 seconds at the same flow rate. […]
The data was fit with the Biacore T200 Evaluation software, using a 1-1 Langmuir binding model. KD (affinity, nM) was determined as a ratio of the kinetic rate constants calculated from the fits of the association and dissociation phases.

Molecule | EC50 (U266B1) [nM] | Span (%) (U266B1) | Span (%) (ARP-1) | EC50 (ARP-1) [nM] | ka (human BCMA-Fc) [M⁻¹ s⁻¹] | kd (human BCMA-Fc) [s⁻¹]
B1 | 0.36 | 81 | 87 | 1 |  | 
B2 | 0.29 | 89 | 88 | 0.86 |  | 
B3 | 1.4 | 47 | 80 | 1.2 |  | 
B4 | 2.5 | 20 | 46 | 3 |  | 
B5 | 1.1 | 50 | 74 | 1.3 |  | 
B6 | 0.29 | 84 | 93 | 0.7 |  | 
B7 | 1.1 | 67 | 83 | 3.8 | 1.02e+06 | 0.000318
B8 | 1.9 | 63 | 82 | 3.5 |  | 
B9 | 2.3 | 42 | 82 | 2.4 |  | 
